Data set [1] deals with T1, anammoxosomal tubules (NXR A, B, C and T subunits) (Candidatus Kuenenia stuttgartensis, UniProt Q1PZD8).
T1 construct: gene narG; native tubules purified from K. stuttgartiensis cells by size exclusion and sucrose density gradient; with nitrite oxidoreductase subunit B, iron-sulfur subunit (NarH-like); nitrite oxidoreductase subunit C, haem b-containing subunit; nitrite oxidoreductase tubule-inducing subunit T, monohaem cytochrome c
Nature of the data set: spectrophotometric, ferricyanide reduction at […] nm. Type of data set: biochemical. Particulars: 2 mM sodium nitrite; 800 µM ferricyanide; 50 mM KPi, 150 mM NaCl, pH 7.25; 35 °C; without dodecyl maltoside.

For data set [2], the target named is Broful_01488, NXR-T homologue from Brocadia fulgida, recombinant, N-terminal His-tag cleaved (Brocadia fulgida). Nature of the data set: crystal structure; Broful_01488 after cleavage of the N-terminal His-tag; 0.02 M LiCl, 0.02 M glycine pH 10.0, 33% PEG 1000, 0.05 M MgCl2; 4.0-4.5 Å, partial model.
For data set [3], the target named is NXR-T (Kustd1705), tubule-inducing NXR subunit, recombinant, N-terminal His-tag cleaved (Kuenenia stuttgartiensis). Nature of the data set: cryo-EM structure; helical reconstruction of tubules reconstituted from KsNXR-ABC and Kustd1705, 5.8 Å after density modification.
For data set [4], the target named is NXR-T (Kustd1705), recombinant, as used for analytical ultracentrifugation (tagged version not stated) (Kuenenia stuttgartiensis). As to the kind of experiment: AUC; sedimentation velocity and sedimentation equilibrium; 25 mM HEPES/KOH pH 7.5, 25 mM KCl; 25,000 or 30,000 r.p.m., 24 h, 20 °C; scans at 415 nm.
Substrate in data set [5]: O=[N+]([O-])O
Nature of the data set: purified protein. The format is biochemical, Candidatus Kuenenia stuttgartensis. Particulars: reduced methyl viologen as electron donor, 50 mM KPi, pH 7.2, 35 °C, anaerobic.

Substrate in data set [6]: O=NO
Nature of the data set: purified protein. Particulars: 800 µM ferricyanide as electron acceptor, 50 mM KPi, 150 mM NaCl, pH 7.25, 35 °C. Type of data set: biochemical, Candidatus Kuenenia stuttgartensis.

Results on 5 molecules are retold here after publication PMC8387239, “Structural and functional characterization of the intracellular filament-forming nitrite oxidoreductase multiprotein complex” (Nature Microbiology, 2021).

T1 sequence (Q1PZD5 1-410 partner, one chain of several): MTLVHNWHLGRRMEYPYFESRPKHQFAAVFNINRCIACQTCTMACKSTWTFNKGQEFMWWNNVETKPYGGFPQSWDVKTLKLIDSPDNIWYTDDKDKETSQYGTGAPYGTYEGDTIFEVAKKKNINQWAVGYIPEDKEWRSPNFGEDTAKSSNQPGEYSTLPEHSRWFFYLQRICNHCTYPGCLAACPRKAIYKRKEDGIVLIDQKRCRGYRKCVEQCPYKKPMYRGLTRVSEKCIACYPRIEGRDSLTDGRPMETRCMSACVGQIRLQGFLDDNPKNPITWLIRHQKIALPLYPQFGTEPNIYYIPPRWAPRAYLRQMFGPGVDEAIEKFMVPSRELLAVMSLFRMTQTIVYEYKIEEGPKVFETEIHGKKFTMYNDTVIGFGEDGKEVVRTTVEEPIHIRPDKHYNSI
T1 sequence (Q1PZD4 29-322 partner, one chain of several): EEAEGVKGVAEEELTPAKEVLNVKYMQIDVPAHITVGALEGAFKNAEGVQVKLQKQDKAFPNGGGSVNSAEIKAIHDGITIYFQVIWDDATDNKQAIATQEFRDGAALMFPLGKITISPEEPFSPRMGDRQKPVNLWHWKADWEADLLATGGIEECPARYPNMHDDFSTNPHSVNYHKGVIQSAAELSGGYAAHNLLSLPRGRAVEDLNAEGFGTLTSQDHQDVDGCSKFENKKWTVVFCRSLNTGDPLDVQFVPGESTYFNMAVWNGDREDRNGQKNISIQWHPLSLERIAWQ
T1 sequence (A0A2C9CDL6 21-180 partner, one chain of several): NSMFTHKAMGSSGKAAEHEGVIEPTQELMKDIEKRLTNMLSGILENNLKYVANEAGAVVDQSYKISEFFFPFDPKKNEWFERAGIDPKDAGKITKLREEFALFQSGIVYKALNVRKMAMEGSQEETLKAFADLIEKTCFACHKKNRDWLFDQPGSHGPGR

Regarding `O=NO` [nitrite], the “spectrophotometric, ferricyanide reduction at 420 nm” value in data set [1] is on record as “can be disassembled by adding the detergent dodecyl maltoside, show nitrite oxidation activity”.

For “Broful_01488, NXR-T homologue from Brocadia fulgida, recombinant, N-terminal His-tag cleaved (natural protein)”, the stoichiometry N in data set [2] was determined as 2.

For the molecule “NXR-T (Kustd1705), tubule-inducing NXR subunit, recombinant, N-terminal His-tag cleaved (natural protein)”, the stoichiometry N in data set [3] was determined as 2. For the molecule “NXR-T (Kustd1705), recombinant, as used for analytical ultracentrifugation (tagged version not stated) (natural protein)”, the stoichiometry N in data set [4] came to 2.

B1: KsNXR-ABC (Candidatus Kuenenia stuttgartensis) (protein)
chain: FRLLKPAVVVDNPLDTYPDRRWESVYRDQYQYDRTFTYCCSPNDTHACRIRAFVRNNVMMRVEQNYDHQNYSDLYGNKATRNWNPRMCLKGYTFHRRVYGPYRLRYPLIRKGWKRWADDGFPELTPENKTKYMFDNRGNDELLRASWDEAFTYASKGIIHITKKYSGPEGAQKLIDQGYPKEMVDRMQGAGTRTFKGRGGMGLLGVIGKYGMYRFNNCLAIVDAHNRGVGPDQALGGRNWSNYTWHGDQAPGHPFSHGLQTSDVDMNDVRFSKLLIQTGKNLIENKMPEAHWVTEVMERGGKIVVITPEYSPSAQKADYWIPIRNNTDTALFLGITKILIDNKWYDADYVKKFTDFPLLIRTDTLKRVSPKDIIPNYKLQDISDGPSYHIQGLKDEQREIIGDFVVWDAKSKGPKAITRDDVGETLVKKGIDPVLEGSFKLKTIDGKEIEVMTLLEMYKIHLRDYDIDSVVSMTNSPKDLIERLAKDIATIKPVAIHYGEGVNHYFHATLMNRSYYLPVMLTGNVGYFGSGSHTWAGNYKAGNFQASKWSGPGFYGWVAEDVFKPNLDPYASAKDLNIKGRALDEEVAYWNHSERPLIVNTPKYGRKVFTGKTHMPSPTKVLWFTNVNLINNAKHVYQMLKNVNPNIEQIMSTDIEITGSIEYADFAFPANSWVEFQEFEITNSCSNPFIQIWGKTGITPVYESKDDVKILAGMASKLGELLRDKRFEDNWKFAIEGRASVYINRLLDGSTTMKGYTCEDILNGKYGEPGVAMLLFRTYPRHPFWEQVHESLPFYTPTGRLQAYNDEPEIIEYGENFIVHREGPEATPYLPNAIVSTNPYIRPDDYGIPENAEYWEDRTVRNIKKSWEETKKTKNFLWEKGYHFYCVTPKSRHTVHSQWAVTDWNFIWNNNFGDPYRMDKRMPGVGEHQIHIHPQAARDLGIEDGDYVYVDANPADRPYEGWKPNDSFYKVSRLMLRAKYNPAYPYNCTMMKHSAWISSDKTVQAHETRPDGRALSPSGYQSSFRYGSQQSITRDWSMPMHQLDSLFHKAKIGMKFIFGFEADNHCINTVPKETLVKITKAENGGMGGKGVWDPVKTGYTAGNENDFMKKFLNGELIKVDA
notes: untagged; with nitrite oxidoreductase subunit B, iron-sulfur subunit (NarH-like); nitrite oxidoreductase subunit C, haem b-containing subunit
For B1, the Km in the data set “purified protein [5]” is reported as 14 ± 1 µM; in the data set “purified protein [6]”, 22 ± 5 µM.

What is called stoichiometry N is a count of units in the complex or per binding partner. The Km is the concentration of substrate that gives half-maximal velocity.
